Values of other authors in PMC4854875.

Target: UBE2T (Homo sapiens) (UniProt Q9NPD8)
UniProt Q9NPD8, sequence (Q9NPD8 whole entry): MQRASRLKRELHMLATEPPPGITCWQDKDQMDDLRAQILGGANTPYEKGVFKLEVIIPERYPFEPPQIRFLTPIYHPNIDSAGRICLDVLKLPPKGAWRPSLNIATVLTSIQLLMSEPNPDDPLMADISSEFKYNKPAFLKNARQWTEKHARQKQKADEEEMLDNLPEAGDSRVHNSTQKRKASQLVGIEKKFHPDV

Kd: 454 nM
Substance: FANCL (from UniProt Q9NW38)
